Experimental data from the supplement of paper PMC9112550, “Optimization of the antimicrobial peptide Bac7 by deep mutational scanning” (BMC Biology, 2022).

Tested on: Escherichia coli TOP10
Test: shrunken log2 fold change of peptide-encoding DNA abundance (4.5 h post-induction vs induction); higher = less antimicrobial activity (less host growth inhibition)
Details: time post-induction: 4.5 h; library: site-saturation at positions 5, 18, 19, 20
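Note: peptides expressed intracellularly from a pBAD plasmid library in pooled LB shake-flask culture, induced with 0.3% L-arabinose, DNA abundance read by NGS, three biological replicates, DESeq2 with apeglm shrinkage.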

| Sequence | shrunken log2 fold change |
| --- | --- |
| RRIRVRPPRLPRPRPRPNARPRP | 0.102 |
| RRIRIRPPRLPRPRPRPNCTPRP | -0.663 |
| RRIRFRPPRLPRPRPRPNQSPRP | -0.32 |
| RRIRYRPPRLPRPRPRPLYSPRP | -1.15 |
| RRIRCRPPRLPRPRPRPWMRPRP | 0.19 |
| RRIRTRPPRLPRPRPRPHASPRP | -0.033 |
| RRIRVRPPRLPRPRPRPWLAPRP | 0.232 |
| RRIRRRPPRLPRPRPRPKTRPRP | 2.44 |
| RRIRFRPPRLPRPRPRPSGDPRP | -0.202 |
| RRIRHRPPRLPRPRPRPLQWPRP | -0.127 |
| RRIRNRPPRLPRPRPRPMVHPRP | -0.00783 |
| RRIRTRPPRLPRPRPRPGDPPRP | 0.106 |
| RRIRPRPPRLPRPRPRPIYCPRP | -0.102 |
| RRIRHRPPRLPRPRPRPPCDPRP | -0.22 |
| RRIRPRPPRLPRPRPRPPDEPRP | 0.444 |
| RRIRNRPPRLPRPRPRPWVTPRP | -0.0711 |
| RRIRLRPPRLPRPRPRPVVMPRP | -0.282 |
| RRIRRRPPRLPRPRPRPFQGPRP | -0.0527 |
| RRIRWRPPRLPRPRPRPYTLPRP | -0.681 |
| RRIRMRPPRLPRPRPRPFFRPRP | 0.406 |
| RRIRIRPPRLPRPRPRPRDPPRP | 1.94 |
| RRIRFRPPRLPRPRPRPYTIPRP | 0.0439 |
| RRIRHRPPRLPRPRPRPWDDPRP | -0.0102 |

| Sequence | shrunken log2 fold change |
| --- | --- |
| RRIRERPPRLPRPRPRPASWPRP | 0.0747 |
| RRIRARPPRLPRPRPRPEAFPRP | 0.0217 |
| RRIRFRPPRLPRPRPRPINWPRP | -0.113 |
| RRIRHRPPRLPRPRPRPQCYPRP | -0.75 |
| RRIRDRPPRLPRPRPRPRDNPRP | -0.339 |
| RRIRQRPPRLPRPRPRPCRAPRP | 0.106 |
| RRIRQRPPRLPRPRPRPVPEPRP | 0.203 |
| RRIRSRPPRLPRPRPRPHVLPRP | -0.54 |
| RRIRQRPPRLPRPRPRPMQEPRP | 0.0325 |
| RRIRCRPPRLPRPRPRPMIPPRP | -0.231 |
| RRIRNRPPRLPRPRPRPTGDPRP | 0.258 |
| RRIRGRPPRLPRPRPRPILDPRP | 0.277 |
| RRIRTRPPRLPRPRPRPVEVPRP | -0.0848 |
| RRIRHRPPRLPRPRPRPNSQPRP | -0.346 |
| RRIRTRPPRLPRPRPRPNWIPRP | -0.289 |
| RRIRDRPPRLPRPRPRPWANPRP | 0.0419 |
| RRIRVRPPRLPRPRPRPSENPRP | 0.0175 |
| RRIRWRPPRLPRPRPRPAVHPRP | 0.631 |
| RRIRPRPPRLPRPRPRPKMLPRP | -0.222 |
| RRIRIRPPRLPRPRPRPKYWPRP | -0.678 |
| RRIRVRPPRLPRPRPRPPVVPRP | -0.0362 |
| RRIRTRPPRLPRPRPRPACAPRP | 0.441 |
| RRIRLRPPRLPRPRPRPVETPRP | 0.217 |

| Sequence | shrunken log2 fold change |
| --- | --- |
| RRIRRRPPRLPRPRPRPTPTPRP | 1.14 |
| RRIRVRPPRLPRPRPRPHMAPRP | -0.339 |
| RRIRERPPRLPRPRPRPKFCPRP | -0.267 |
| RRIRARPPRLPRPRPRPFSGPRP | -0.00374 |
| RRIRFRPPRLPRPRPRPYNMPRP | -0.725 |
| RRIRGRPPRLPRPRPRPTQDPRP | 1.34 |
| RRIRQRPPRLPRPRPRPQDAPRP | -0.253 |
| RRIRNRPPRLPRPRPRPKVRPRP | -0.0024 |
| RRIRWRPPRLPRPRPRPPLWPRP | 0.558 |
| RRIRYRPPRLPRPRPRPMRHPRP | -0.0913 |
| RRIRRRPPRLPRPRPRPRIIPRP | 0.0728 |
| RRIRPRPPRLPRPRPRPCVNPRP | -0.0713 |
| RRIRMRPPRLPRPRPRPFRAPRP | 0.452 |
| RRIRWRPPRLPRPRPRPTHWPRP | 0.322 |
| RRIRRRPPRLPRPRPRPSWWPRP | 0.327 |
| RRIRIRPPRLPRPRPRPSDWPRP | -0.0413 |
| RRIRYRPPRLPRPRPRPFGKPRP | -0.0625 |
| RRIRMRPPRLPRPRPRPDHKPRP | 0.0228 |
| RRIRARPPRLPRPRPRPYQHPRP | -0.272 |
| RRIRMRPPRLPRPRPRPIDRPRP | -0.0322 |
| RRIRQRPPRLPRPRPRPSRFPRP | 3.97 |
| RRIRDRPPRLPRPRPRPVARPRP | 0.56 |
| RRIRERPPRLPRPRPRPCMTPRP | -0.00173 |

| Sequence | shrunken log2 fold change |
| --- | --- |
| RRIRTRPPRLPRPRPRPLCPPRP | -0.165 |
| RRIRSRPPRLPRPRPRPLCSPRP | 0.0443 |
| RRIRVRPPRLPRPRPRPETNPRP | 0.0778 |
| RRIRSRPPRLPRPRPRPWMTPRP | -0.000334 |
| RRIRDRPPRLPRPRPRPPLMPRP | 0.325 |
| RRIRPRPPRLPRPRPRPLSEPRP | 0.126 |
| RRIRNRPPRLPRPRPRPAVRPRP | 0.2 |
| RRIRGRPPRLPRPRPRPVCTPRP | 0.73 |
| RRIRDRPPRLPRPRPRPKFNPRP | -0.236 |
| RRIRYRPPRLPRPRPRPAATPRP | 0.208 |
| RRIRKRPPRLPRPRPRPIKSPRP | 3.22 |
| RRIRGRPPRLPRPRPRPWWIPRP | 0.0656 |
| RRIRKRPPRLPRPRPRPTNIPRP | -0.188 |
| RRIRARPPRLPRPRPRPGQIPRP | 0.216 |
| RRIRFRPPRLPRPRPRPHQKPRP | -0.0745 |
| RRIRQRPPRLPRPRPRPSAMPRP | 0.218 |
| RRIRKRPPRLPRPRPRPQIQPRP | 0.0528 |
| RRIRGRPPRLPRPRPRPAMCPRP | 0.465 |
| RRIRHRPPRLPRPRPRPLSEPRP | 0.203 |
| RRIRHRPPRLPRPRPRPDIIPRP | -0.0233 |
| RRIRPRPPRLPRPRPRPWCTPRP | -0.218 |
| RRIRFRPPRLPRPRPRPEPFPRP | 0.108 |
